Earlier results, collected in PMC7830601.
Where two headings read alike, the source gives them in different places. One block for each substance: values may come before it.

Columns and labels:
ASC PYD (Homo sapiens) [1] = target: ASC PYD (Homo sapiens) (UniProt Q9ULZ3)
ASC PYD (Homo sapiens) [2] = target: ASC PYD (Homo sapiens) (UniProt Q9ULZ3); remark: listed apart in the source
ASC CARD (Homo sapiens) = ASC CARD (Homo sapiens) (UniProt Q9ULZ3); test: NMR
AIM2 HIN (Homo sapiens) = AIM2 HIN (Homo sapiens) (UniProt O14862); test: ITC

Kd (ASC PYD (Homo sapiens) [1]): 3.81 µM | Kd (ASC PYD (Homo sapiens) [2]): 4.08 µM
Substance: ASC2 (from UniProt Q8WXC3)

Kd (ASC CARD (Homo sapiens)): 50 µM
Substance: ASC CARD (from UniProt Q9ULZ3)

Kd (AIM2 HIN (Homo sapiens)): 23.5 µM
Substance: AIM2 PYD (from UniProt O14862)
